B1: CCAAT/enhancer-binding protein beta (Homo sapiens), P17676-2 (parent)
chain: MEVANFYYEADCLAAAYGGKAAPAAPPAARPGPRPPAGELGSIGDHERAIDFSPYLEPLGAPQAPAPATATDTFEAAPPAPAPAPASSGQHHDFLSDLFSDDYGGKNCKKPAEYGYVSLGRLGAAKGALHPGCFAPLHPPPPPPPPPAELKAEPGFEPADCKRKEEAGAPGGGAGMAAGFPYALRAYLGYQAVPSGSSGSLSTSSSSSPPGTPSPADAKAPPTACYAGAAPAPSQVKSKAKKTVDKHSDEYKIRRERNNIAVRKSRDKAKMRNLETQHKVLELTAENERLQKKVEQLSRELSTLRNLFKQLPEPLLASSGHC

Variants of: B1
Settings: with hdac4_human HDAC4, P56524
Sequence of hdac4_human HDAC4, P56524 (P56524 whole entry): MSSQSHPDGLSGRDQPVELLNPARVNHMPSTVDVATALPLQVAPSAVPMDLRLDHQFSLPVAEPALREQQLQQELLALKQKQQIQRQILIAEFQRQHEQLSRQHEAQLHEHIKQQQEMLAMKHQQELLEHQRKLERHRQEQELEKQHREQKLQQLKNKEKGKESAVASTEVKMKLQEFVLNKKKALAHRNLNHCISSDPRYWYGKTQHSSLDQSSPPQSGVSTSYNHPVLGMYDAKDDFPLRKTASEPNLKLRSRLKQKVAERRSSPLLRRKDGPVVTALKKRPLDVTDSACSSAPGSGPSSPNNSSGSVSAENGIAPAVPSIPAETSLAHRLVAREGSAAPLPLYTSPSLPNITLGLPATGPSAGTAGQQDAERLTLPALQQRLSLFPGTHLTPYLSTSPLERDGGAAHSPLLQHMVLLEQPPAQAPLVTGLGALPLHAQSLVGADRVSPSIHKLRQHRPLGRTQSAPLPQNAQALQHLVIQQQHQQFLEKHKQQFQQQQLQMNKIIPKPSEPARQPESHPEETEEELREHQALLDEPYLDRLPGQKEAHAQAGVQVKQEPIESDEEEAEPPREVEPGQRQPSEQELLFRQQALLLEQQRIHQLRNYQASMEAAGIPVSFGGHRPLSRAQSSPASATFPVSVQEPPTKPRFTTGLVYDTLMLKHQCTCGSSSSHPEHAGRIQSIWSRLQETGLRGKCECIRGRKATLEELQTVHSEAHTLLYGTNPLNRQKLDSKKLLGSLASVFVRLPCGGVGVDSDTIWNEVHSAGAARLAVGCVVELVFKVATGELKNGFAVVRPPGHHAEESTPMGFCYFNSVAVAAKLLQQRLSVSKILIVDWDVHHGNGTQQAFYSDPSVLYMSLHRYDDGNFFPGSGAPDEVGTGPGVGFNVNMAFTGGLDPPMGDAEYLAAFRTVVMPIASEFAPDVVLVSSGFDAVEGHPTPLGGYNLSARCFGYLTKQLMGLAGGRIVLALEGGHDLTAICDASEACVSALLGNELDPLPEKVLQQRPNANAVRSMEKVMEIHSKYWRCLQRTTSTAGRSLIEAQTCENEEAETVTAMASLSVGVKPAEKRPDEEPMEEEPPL

| Variant | effect of a mutation on the interaction |
| --- | --- |
| K151A | with no effect |
